Data published in publication PMC7113306 (2020).
“And” between values parts separate entries of the source, which are not always exact repeats. Identical values can stand only once.

T1: ALK2-Fc (UniProt Q04771 21-123)
T1 chain: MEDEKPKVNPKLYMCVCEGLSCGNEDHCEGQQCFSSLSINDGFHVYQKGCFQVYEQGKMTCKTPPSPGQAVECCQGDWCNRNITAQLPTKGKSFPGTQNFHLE


How the values were obtained:
Experiment in all cases: SPR
[1] = target: T2, ALK1 extracellular domain (ALK1 ECD) (human, UniProt P37023 22-118)
[2] = target: T2, ALK1 extracellular domain (ALK1 ECD); remark: listed apart in the source
[3] = target: T3, ALK1-Fc (ALK1 extracellular domain-Fc fusion protein) (UniProt P37023 22-118)
[4] = target: T1, ALK2-Fc
[5] = target: T3, ALK1-Fc (ALK1 extracellular domain-Fc …); remark: listed apart in the source

T3 sequence (P37023 22-118): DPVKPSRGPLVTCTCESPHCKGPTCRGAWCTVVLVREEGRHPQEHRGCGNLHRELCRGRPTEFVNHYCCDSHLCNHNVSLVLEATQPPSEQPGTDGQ
T2 sequence (P37023 22-118): as above

Kd [1]	koff [2]	koff [3]	Kd [4]	Kd [5]	Binder
0.017 nM	5.63e-05 s⁻¹	3.44e-05 s⁻¹	–	0.0187 nM and 0.0112 nM	pro-BMP10 (prodomain-bound BMP10) (complex, furin-processed; prodomain non-covalently bound to the disulfide-linked GF-domain dimer; secreted from HEK EBNA cells. Limits are from the UniProt PROPEP and CHAIN features.) chain 1: SPIMNLEQSPLEEDMSLFGDVFSEQDGVDFNTLLQSMKDEFLKTLNLSDIPTQDSAKVDPPEYMLELYNKFATDRTSMPSANIIRSFKNEDLFSQPVSFNGLRKYPLLFNVSIPHHEEVIMAELRLYTLVQRDRMIYDGVDRKITIFEVLESKGDNEGERNMLVLVSGEIYGTNSEWETFDVTDAIRRWQKSGSSTHQLEVHIESKHDEAEDASSGRLEIDTSAQNKHNPLLIVFSDDQSSDKERKEELNEMISHEQLPELDNLGLDSFSSGPGEEALLQMRSNIIYDSTARIRR chain 2: NAKGNYCKRTPLYIDFKEIGWDSWIIAPPGYEAYECRGVCNYPLAEHLTPTKHAIIQALVHLKNSQKASKACCVPTKLEPISILYLDKGVVTYKFKYEGMAVSECGCR
0.0557 nM	8.5e-05 s⁻¹	5.31e-05 s⁻¹	–	–	BMP10 GF-domain (bone morphogenetic protein 10 growth factor domain) (ligand) NAKGNYCKRTPLYIDFKEIGWDSWIIAPPGYEAYECRGVCNYPLAEHLTPTKHAIIQALVHLKNSQKASKACCVPTKLEPISILYLDKGVVTYKFKYEGMAVSECGCR

Continued, binder first:

Binder	Kd [1]	koff [2]	koff [3]	Kd [4]	Kd [5]
BMP9 GF-domain (bone morphogenetic protein 9 growth factor domain) (ligand) SAGAGSHCQKTSLRVNFEDIGWDSWIIAPKEYEAYECKGGCFFPLADDVTPTKHAIVQTLVHLKFPTKVGKACCVPTKLSPISVLYKDDMGVPTLKYHYEGMSVAECGCR	0.0716 nM	8.37e-05 s⁻¹	6.19e-05 s⁻¹	–	–
pro-BMP9 (prodomain-bound BMP9) (complex) chain 1: KPLQSWGRGSAGGNAHSPLGVPGGGLPEHTFNLKMFLENVKVDFLRSLNLSGVPSQDKTRVEPPQYMIDLYNRYTSDKSTTPASNIVRSFSMEDAISITATEDFPFQKHILLFNISIPRHEQITRAELRLYVSCQNHVDPSHDLKGSVVIYDVLDGTDAWDSATETKTFLVSQDIQDEGWETLEVSSAVKRWVRSDSTKSKNKLEVTVESHRKGCDTLDISVPPGSRNLPFFVVFSNDHSSGTKETRLELREMISHEQESVLKKLSKDGSTEAGESSHEEDTDGHVAAGSTLARRKR chain 2: SAGAGSHCQKTSLRVNFEDIGWDSWIIAPKEYEAYECKGGCFFPLADDVTPTKHAIVQTLVHLKFPTKVGKACCVPTKLSPISVLYKDDMGVPTLKYHYEGMSVAECGCR	0.0929 nM	8.46e-05 s⁻¹	4.84e-05 s⁻¹	86.2 nM	0.0392 nM and 0.0612 nM
BMP6-GF WT (protein, disulfide-linked GF-domain homodimer. The text gives no BMP6 construct, source or limits (named only in a figure), so the human mature chain is assumed.) not shown	–	–	–	19.2 nM	–
